# Residue numbers refer to the chain shown, from its start. Names may count otherwise.
# T1: truncated cTfR1 of SEQ ID NO:123 (cynomolgus monkey, UniProt Q5RDH6 122-760 (Pongo abelii entry))
# T1 construct: also called cynomolgus TfR1
# T1 chain: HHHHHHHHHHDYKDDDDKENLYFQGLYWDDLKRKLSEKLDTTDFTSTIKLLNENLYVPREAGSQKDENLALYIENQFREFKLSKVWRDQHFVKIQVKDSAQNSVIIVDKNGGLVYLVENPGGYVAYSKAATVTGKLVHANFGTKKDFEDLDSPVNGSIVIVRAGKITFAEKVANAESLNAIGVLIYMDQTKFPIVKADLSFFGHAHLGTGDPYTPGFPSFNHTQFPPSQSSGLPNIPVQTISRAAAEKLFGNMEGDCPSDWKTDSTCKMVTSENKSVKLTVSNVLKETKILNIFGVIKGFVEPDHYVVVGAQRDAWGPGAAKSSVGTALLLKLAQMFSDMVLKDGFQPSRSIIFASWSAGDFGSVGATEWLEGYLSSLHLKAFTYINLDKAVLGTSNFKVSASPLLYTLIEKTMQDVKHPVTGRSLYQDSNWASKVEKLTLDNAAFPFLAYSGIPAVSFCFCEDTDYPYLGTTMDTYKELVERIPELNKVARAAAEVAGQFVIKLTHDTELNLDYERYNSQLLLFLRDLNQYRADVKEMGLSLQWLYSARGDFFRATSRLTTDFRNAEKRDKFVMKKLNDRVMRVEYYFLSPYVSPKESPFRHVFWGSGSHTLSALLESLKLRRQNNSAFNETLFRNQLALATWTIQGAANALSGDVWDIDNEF
# B1: BA007 (bispecific antibody, human IgG1, kappa)
# light: EIVLTQSPLSLSVTLGQSASISCRSSQSLLDSNGKTYLHWFILRPGQSPRRLIYLVSILDSGVPDRFSGSGSGTDFTLKISRVEAEDVGVYYCVQGTHFPFTFGSGTKLEIKRTVAAPSVFIFPPSDEQLKSGTASVVCLLNNFYPREAKVQWKVDNALQSGNSQESVTEQDSKDSTYSLSSTLTLSKADYEKHKVYACEVTHQGLSSPVTKSFNRGEC
# heavy 1: not shown
# heavy 2: EVQLVQSGAEVVKPGASVRLSCKASGYSFTGFTMNWVRQALGQGLEWMGLINPYNGVTTYNQKFKGRLTMTRDMSTRTVYMDLSSLTYEDTAVYYCTREGNWEGVYWGQGTLVTVSSASTKGPSVFPLAPSSKSTSGGTAALGCLVKDYFPEPVTVSWNSGALTSGVHTFPAVLQSSGLYSLSSVVTVPSSSLGTQTYICNVNHKPSNTKVDKKVEPKSCDKTHTCPPCPAPELLGGPSVFLFPPKPKDTLMISRTPEVTCVVVDVSHEDPEVKFNWYVDGVEVHNAKTKPREEQYNSTYRVVSVLTVLHQDWLNGKEYKCAVSNKALPAPIEKTISKAKGQPREPQVYTLPPCRDELTKNQVSLWCLVKGFYPSDIAVEWESNGQPENNYKTTPPVLDSDGSFFLYSKLTVDKSRWQQGNVFSCSVMHEALHNHYTQKSLSLSPGGGGGSGGGGSGGGGSGGGGSDIQMTQSPSSVSASVGDRVTITCKSSQSLLYSTNQKNYLAWYQQKPGKAPKLLIYWASTRESGVPSRFSGSGSGTDFTLTISSLQPEDFATYYCQQYFIYPRTFGCGTKVEIKGGGGSGGGGSGGGGSGGGGSEVQLVQSGAEVKKPGSSVKVSCKASGYIFTDYNMDWVRQAPGQCLEWIGDINPDADTTSYNEKFKGRATLTVDKSTSTAYMELSSLRSEDSAVYYCARGGYSGSSYYHPMDYWGQGTLVTVKS
# B2: BA006 (bispecific antibody, human IgG1, kappa)
# light: B1 light
# heavy 1: not shown
# heavy 2: B1 heavy 2 with S690T
# B3: h26D3-HC8/LC5 (Fab, V domains shown)
# VH: EVQLVQSGAEVKKPGSSVKVSCKASGYIFTDYNMDWVRQAPGQGLEWIGDINPDYDTTSANEKFKGRATLTVDKSTSTAYMELSSLRSEDTAVYYCARGGYSGSSYYHPMDYWGQGTLVTVSS
# VL: DIQMTQSPSSVSASVGDRVTITCKSSQSLLYSTNQKNYLAWYQQKPGKAPKLLIYWASTRESGVPSRFSGSGSGTDFTLTISSLQPEDFATYYCQQAFIYPRTFGQGTKVEIK
# notes: His-tagged Fab; also called double alanine mutant of h26D3 (VH Y60A, VL Y97A)
# B4: h26D3-HC6/LC5 (Fab, V domains shown)
# VH: B3 VH with Y55A, A60Y
# VL: B3 VL
# notes: His-tagged Fab; also called double alanine mutant of h26D3 (VH Y55A, VL Y97A)
# B5: h26D3-HC8/LC1 (Fab, V domains shown)
# VH: B3 VH
# VL: B3 VL with Y31A, A97Y
# notes: His-tagged Fab; also called double alanine mutant of h26D3 (VH Y60A, VL Y31A)
# B6: h26D3-HC10/LC1 (Fab, V domains shown)
# VH: B3 VH with A60Y, Y106A
# VL: B3 VL with Y31A, A97Y
# notes: His-tagged Fab; also called double alanine mutant of h26D3 (VH Y106A, VL Y31A)
# B7: h26D3-HC3/LC1 (Fab, V domains shown)
# VH: B3 VH with D35A, A60Y
# VL: B3 VL with Y31A, A97Y
# notes: His-tagged Fab; also called double alanine mutant of h26D3 (VH D35A, VL Y31A)
# B8: h26D3-HC6/LC1 (Fab, V domains shown)
# VH: B3 VH with Y55A, A60Y
# VL: B3 VL with Y31A, A97Y
# notes: His-tagged Fab; also called double alanine mutant of h26D3 (VH Y55A, VL Y31A)
# B9: h26D3-HC3/LC5 (Fab, V domains shown)
# VH: B3 VH with D35A, A60Y
# VL: B3 VL
# notes: His-tagged Fab; also called double alanine mutant of h26D3 (VH D35A, VL Y97A)
# B10: h26D3-HC10/LC5 (Fab, V domains shown)
# VH: B3 VH with A60Y, Y106A
# VL: B3 VL
# notes: His-tagged Fab; also called double alanine mutant of h26D3 (VH Y106A, VL Y97A)
# B11: h26D3 variant HC1 Fab (Fab, V domains shown)
# VH: B3 VH with D31A, A60Y
# VL: B3 VL with A97Y
# notes: Single-mutant His-tagged Fab; also called D31A
# B12: h26D3 variant LC2 Fab (Fab, V domains shown)
# VH: B3 VH with A60Y
# VL: B3 VL with Y38A, A97Y
# notes: Single-mutant His-tagged Fab; also called Y38A
# B13: h26D3 variant LC3 Fab (Fab, V domains shown)
# VH: B3 VH with A60Y
# VL: B3 VL with Y55A, A97Y
# notes: Single-mutant His-tagged Fab; also called Y55A
# B14: h26D3 variant LC4 Fab (Fab, V domains shown)
# VH: B3 VH with A60Y
# VL: B3 VL with W56A, A97Y
# notes: Single-mutant His-tagged Fab; also called W56A
# B15: h26D3 variant HC9 Fab (Fab, V domains shown)
# VH: B3 VH with A60Y, Y101A
# VL: B3 VL with A97Y
# notes: Single-mutant His-tagged Fab; also called Y101A
# B16: h26D3 variant HC13 Fab (Fab, V domains shown)
# VH: B3 VH with A60Y, Y112A
# VL: B3 VL with A97Y
# notes: Single-mutant His-tagged Fab; also called Y112A
# B17: h26D3 variant HC7 Fab (Fab, V domains shown)
# VH: B3 VH with D56A, A60Y
# VL: B3 VL with A97Y
# notes: Single-mutant His-tagged Fab; also called D56A
# B18: h26D3 variant HC12 Fab (Fab, V domains shown)
# VH: B3 VH with A60Y, D111A
# VL: B3 VL with A97Y
# notes: Single-mutant His-tagged Fab; also called D111A
# Target: T2, AβpE3-40 monomer (UniProt P05067 674-711, pyroglutamate at position 3 (N-terminal residue))
# T2 construct: range 3-40 (Aβ numbering); Synthetic peptide (Bachem/Anaspec), verified monomeric by SEC; also called monomeric AβpE3-40
# Test: SPR, antibody immobilised, monomer injected, 1:1 fit
# T2 sequence (P05067 674-711): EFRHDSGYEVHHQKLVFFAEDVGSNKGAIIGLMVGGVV
Kd [nM],koff [s⁻¹],kon [M⁻¹ s⁻¹],Binder
2.1,0.00012,54000,B1
2.3,0.00012,52000,B2

# Target: T3, truncated hTfR1 of SEQ ID NO:122 (human, UniProt P02786 122-760)
# T3 construct: also called human TfR1; Human TfR1
# Test: SPR, FLAG-captured TfR1, bispecific injected, 1:1 fit
# Protocol: (§1) Binding of the purified bispecific binding molecules produced in Example 47 to human and cynomolgus TfR1 was evaluated using SPR on a Biacore 8K instrument (Cytiva). […] The interaction was measured using the single cycle kinetics method with a contact time of 120 s at a flow rate of 30 μl/min followed by a dissociation time of 600 s. Regeneration of the surface between cycles was done by injecting 10 mM glycine-HCl, pH 1.7. The binding data was fitted to a 1:1 interaction model. The tested molecules were diluted in HBS-EP+ (Cytiva, #BR100669). Experiments were performed at 25° C.
Kd [nM],koff [s⁻¹],kon [M⁻¹ s⁻¹],Binder
186,0.004,22000,B1
189,0.0041,22000,B2

# Target: T1, truncated cTfR1 of SEQ ID NO:123
# Test: as above
# Protocol: as §1
Kd [nM],koff [s⁻¹],kon [M⁻¹ s⁻¹],Binder
565,0.011,19000,B1
552,0.011,20000,B2

# Target: T4, ectodomain of human TfR1 (His10-hTfR1; SEQ ID NO:110) (human, UniProt P02786 89-760)
# T4 construct: also called ectodomain of hTfR1
# Test: indirect ELISA: plate coated with 1 µg/ml hTfR1 ectodomain, Fab in 1:3 serial dilution, anti-human IgG F(ab')2-HRP
# Protocol: For the indirect ELISA, half area 96-well plates (Corning, #3690) were coated with 1 μg/ml recombinant ectodomain of hTfR1 (SEQ ID NO:110) in PBS overnight at 4° C. The coated plates were blocked using Pierce protein-free blocking solution (Thermo Fisher Scientific, #37572) for 1 h at room temperature with shaking and washed four times in PBS containing 0.1% TWEEN-20. Serial dilutions (1:3) of various expressed constructs in incubation buffer (1% BSA, 0.1% TWEEN-20 in PBS) were incubated for 1 h at room temperature. […] Following four wash steps, K-Blue® Aqueous TMB substrate (Neogen, #331177) was added to the wells for 15 min at room temperature before the reaction was stopped with 1:1 dilution of 0.5 M H₂SO₄. The optical density at 450 nm was recorded (Spark, Tecan) and background signal was subtracted before analysis.
row,binding result,Binder
1,binds,B3
2,binds,B4
3,binds,B5
4,binds,B6
5,binds,B7
6,binds,B8
7,binds,B9
8,binds,B10

# Target: T4, ectodomain of human TfR1 (His10-hTfR1; …)
# Test: BLI: His-tagged Fab loaded from cell supernatant on anti-Fab sensors, hTfR1 ectodomain at 3.75 µg/ml in solution, 300 s association, 300 s dissociation
# Source text: The generated alanine variants were expressed as single mutant, His-tagged Fabs by transient transfection of Chinese hamster ovary cells (ExpiCHO; Thermo Fisher Scientific) according to the manufacturer's instructions. Clarified media, into which the Fabs had been secreted, was used to assess binding to hTfR1 by BLI (Octet RED384, ForteBio). The expressed Fabs were loaded from the cell supernatants onto anti-Fab biosensors during 240 s. Thereafter, association of ectodomain of hTfR1 (SEQ ID NO:110), diluted to 3.75 μg/ml in 1× Kinetics buffer (ForteBio), to the loaded sensors was measured for 300 s, followed by dissociation for 300 s.
row,binding result,Binder
1,binds,B11
2,binds,B12
3,binds,B13
4,binds,B14
5,binds,B15
6,binds,B16
7,binds,B17
8,binds,B18
